Assay results taken from patent US6855815 (Amgen, dated 2005).

What was measured:
[1] = target: T1, human cellular inhibitor of apoptosis protein 1 (c-IAP1) (human, UniProt Q13490 1-618); assay: yeast two-hybrid
T1 construct: Tested in a yeast two-hybrid system; also called h c-IAP1
From the text: (§1) A yeast two-hybrid system was used to determine how c-IAP1 and -2 interact with TNF-R2 and/or TRAFs. The following results were obtained indistinguishably for c-IAP1 and c-IAP2. […] However, a direct interaction could be detected between c-IAP1 and TRAF2. […] Consistently, c-IAP1 also interacted with TRAF1. […] Thus c-IAP1 and TNF-R2 bind to non-overlapping docking sites within the TRAF domain of TRAF2. […] Similarly, combinations of two of the three BIR motifs e.g. amino acid residues 46–99 and 204–249 of c-IAP1 and 29–82 and 189–234 of c-IAP2, separated by IAP1 derived intervening sequences of varying lengths are assayed for TRAF1 and TRAF2 binding. […] The RING finger domain of c-IAP1/2 (amino acids 571–618 of c-IAP1 and 557–604 of c-IAP2) is not required for interaction with TRAFs, but rather mediates subsequent steps in the c-IAP1/2 signaling cascade. Similarly, a variety of c-IAP1 derived N-terminal leader sequences fused to the c-IAP1 RING finger domain are used to assay signal transduction mediation.

[2] = target: T2, human cellular inhibitor of apoptosis protein 2 (c-IAP2) (human, UniProt Q13489 1-604); assay: yeast two-hybrid
T2 construct: The two-hybrid fusion partners are not described; also called h c-IAP2
T2 sequence (Q13489 whole entry, the tested form may be a part): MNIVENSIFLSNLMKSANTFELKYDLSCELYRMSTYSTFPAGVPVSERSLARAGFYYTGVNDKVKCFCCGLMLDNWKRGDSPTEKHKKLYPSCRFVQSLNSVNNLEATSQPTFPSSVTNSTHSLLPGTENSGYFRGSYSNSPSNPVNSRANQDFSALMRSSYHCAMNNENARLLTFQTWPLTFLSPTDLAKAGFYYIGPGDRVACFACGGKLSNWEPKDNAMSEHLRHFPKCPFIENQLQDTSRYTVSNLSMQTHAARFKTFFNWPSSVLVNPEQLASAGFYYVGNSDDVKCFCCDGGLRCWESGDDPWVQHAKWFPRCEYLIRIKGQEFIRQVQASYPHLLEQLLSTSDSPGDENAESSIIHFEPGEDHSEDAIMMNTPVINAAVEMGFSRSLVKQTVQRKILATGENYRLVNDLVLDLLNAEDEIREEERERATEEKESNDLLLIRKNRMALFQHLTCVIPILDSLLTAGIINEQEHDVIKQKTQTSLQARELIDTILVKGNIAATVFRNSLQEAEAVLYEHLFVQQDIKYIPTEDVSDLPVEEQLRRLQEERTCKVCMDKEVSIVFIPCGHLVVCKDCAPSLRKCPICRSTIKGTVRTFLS
From the text: as §1

[3] = target: T3, c-IAP1 N-terminally tagged with a FLAG epitope peptide (Homo sapiens (Human), UniProt Q13490 1-618); assay: co-immunoprecipitation from transfected 293 cells (anti-TNF-R2 IP, anti-FLAG Western)
T3 construct: Expressed in human embryonic 293 cells from a pRK vector (CMV promoter); also called FLAG-tagged c-IAP1
T3 sequence (Q13490 whole entry): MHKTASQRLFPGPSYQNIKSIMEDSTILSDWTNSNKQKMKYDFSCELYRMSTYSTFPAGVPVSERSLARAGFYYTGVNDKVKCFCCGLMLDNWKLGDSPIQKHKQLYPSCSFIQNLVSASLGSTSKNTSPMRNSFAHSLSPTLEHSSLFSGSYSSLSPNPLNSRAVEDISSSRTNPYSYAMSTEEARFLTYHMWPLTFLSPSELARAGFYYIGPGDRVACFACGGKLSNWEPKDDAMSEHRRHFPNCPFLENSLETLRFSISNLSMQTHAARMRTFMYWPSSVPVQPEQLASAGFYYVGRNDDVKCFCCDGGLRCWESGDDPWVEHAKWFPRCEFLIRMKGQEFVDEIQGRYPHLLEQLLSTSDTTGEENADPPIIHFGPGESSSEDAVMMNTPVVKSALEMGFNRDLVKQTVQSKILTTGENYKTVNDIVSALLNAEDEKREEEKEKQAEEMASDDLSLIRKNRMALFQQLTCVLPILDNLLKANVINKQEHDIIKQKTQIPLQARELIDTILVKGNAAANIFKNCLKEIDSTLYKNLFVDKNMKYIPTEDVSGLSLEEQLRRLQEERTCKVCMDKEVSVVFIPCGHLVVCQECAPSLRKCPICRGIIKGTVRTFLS
Method: A transfection based co-immunoprecipitation assay was used to investigate how c-IAP1 interacts with the complex of TNF-R2 and TRAFs. In this system c-IAP1 was N-terminally tagged with a FLAG epitope peptide and expressed in human embryonic 293 cells under the control of a constitutive CMV promotor (pRK vector). The c-IAP1 expression vector was transiently co-transfected into 293 cells with expression vectors for TNF-R2 and TRAFs. After 24–36 h, the cells were harvested and extracts immunoprecipitated with anti-TNF-R2 antibodies, followed by Western analysis with anti-FLAG antibodies. […] Thus, c-IAP1 is a component of the TNF-R2 (CD40)/TRAF signaling complex.

Measured: binding result

T1 sequence (Q13490 whole entry): as above

B1: TNF-R2 (receptor, UniProt P20333 288-461, looked up)
chain: KKKPLCLQREAKVPHLPADKARGTQGPEQQHLLITAPSSSSSSLESSASALDRRAPTRNQPQAPGVEASGAGEARASTGSSDSSPGGHGTQVNVTCIVNVCSSSDHSSQCSSQASSTMGDTDSSPSESPKDEQVPFSKEECAFRSQLETPETLLGSTEEKPLPLGVPDAGMKPS
notes: In the co-immunoprecipitation it was expressed from a vector in 293 cells
no binding: [1] | [2] | [3]
